Each block holds one molecule with its values, some of them ahead of it.
Legend:
[1] = target: human IL-10^mono fused to the C-terminus of constant domains 2 and 3 of human immunoglobulin A2m1 (Fcα-hIL-10^mono), plant produced (human) (UniProt P22301); experiment: non-reducing SDS-PAGE with Western blot; soluble plant proteins (crude leaf extract, desalted on G25 Sephadex, filter sterilised) separated under non-reducing conditions on a NuPAGE 12% Bis-Tris gel; detected with antibodies against hIL-10 or IgA
[2] = target: human IL-10 fused to the C-terminus of constant domains 2 and 3 of human immunoglobulin A2m1 (Fcα-hIL-10), plant produced (human) (UniProt P22301); experiment: as above
[3] = target: the molecule itself; experiment: as above
[4] = target: the molecule itself; experiment: non-reducing SDS-PAGE with Western blot; 50 ng recombinant E. coli produced hIL-10 (R&D Systems) separated under non-reducing conditions on a NuPAGE 12% Bis-Tris gel; detected with an antibody against hIL-10

B1: plant produced human interleukin-10 (natural protein, UniProt P22301 19-178, looked up)
chain: SPGQGTQSENSCTHFPGNLPNMLRDLRDAFSRVKTFFQMKDQLDNLLLKESLLEDFKGYLGCQALSEMIQFYLEEVMPQAENQDPDIKAHVNSLGENLKTLRLRLRRCHRFLPCENKSKAVEQVKNAFNKLQEKGIYKAMSEFDIFINYIEAYMTMKIRN
notes: signal peptide in the construct; human interleukin-10, complete native open reading frame (178 amino acids including the N-terminal signal peptide); the NcoI site adds two extra amino acids to the N-terminus of the signal peptide; Secreted through its own signal peptide; also called hIL-10; human IL-10; source: Nicotiana benthamiana leaves, agro-infiltrated (transient), in desalted crude extract
- stoichiometry N [3]: ≥ 2

B2: recombinant E. coli produced human IL-10 (natural protein, UniProt P22301 19-178, looked up)
chain: B1 chain
notes: human interleukin-10, recombinant, E. coli produced, 18 kDa on the blot; also called r hIL-10; E. coli produced hIL-10; source: bought: R&D Systems (recombinant, E. coli produced)
- stoichiometry N [4]: ≥ 2

Other lines, results leading:

- stoichiometry N [1]: 2
Molecule: human IL-10^mono fused to the C-terminus of constant domains 2 and 3 of human immunoglobulin A2m1 (Fcα-hIL-10^mono), plant produced (from UniProt P22301 19-178) (Fc fusion)

- stoichiometry N [2]: 2
Molecule: human IL-10 fused to the C-terminus of constant domains 2 and 3 of human immunoglobulin A2m1 (Fcα-hIL-10), plant produced (from UniProt P22301 19-178) (Fc fusion)

Source: PMC3462211, “3D Domain Swapping Causes Extensive Multimerisation of Human Interleukin-10 When Expressed In Planta” (PLoS ONE, 2012)
